The numbers were not newly measured in paper PMC5040164, which cites them from elsewhere.

This data set has as its target SAS1B (Mus musculus) (UniProt Q6HA09).
Sequence of UniProt Q6HA09 (Q6HA09 24-435): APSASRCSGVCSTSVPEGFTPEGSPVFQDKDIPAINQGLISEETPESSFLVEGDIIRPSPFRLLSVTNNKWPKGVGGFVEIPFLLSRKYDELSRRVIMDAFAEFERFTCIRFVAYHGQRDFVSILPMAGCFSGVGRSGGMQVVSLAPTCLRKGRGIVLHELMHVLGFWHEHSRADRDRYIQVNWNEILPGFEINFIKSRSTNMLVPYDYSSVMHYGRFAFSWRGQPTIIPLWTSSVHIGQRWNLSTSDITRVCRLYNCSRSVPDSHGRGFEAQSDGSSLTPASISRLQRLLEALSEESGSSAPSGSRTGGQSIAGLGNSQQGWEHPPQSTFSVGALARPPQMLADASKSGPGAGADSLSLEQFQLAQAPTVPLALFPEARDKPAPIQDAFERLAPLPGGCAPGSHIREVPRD

What is called Kd is the concentration at which binding is half-saturated. Turning to SLLP1 (from UniProt Q9D9X8), the Kd is 0.32 nM.
